Measured values as given in US20260116991A1 (HAINAN SIMCERE ZAIMING PHARMACEUTICAL, published 2026).
Numbering of substitutions follows the chain as printed.

B1: hAb003LH1L1 (antibody, human IgG1, V domains shown)
VH: EVQLVQSGAEVKKPGSSVKVSCKASGYTFSDYEMHWVRQAPGQGLEWMGTIDPETGNTAYTQKFMDRVTITADKSTSTAYMELSSLRSEDTAVYYCTRGYSFTYWGQGTLVTVSS
VL: DIVMTQTPLSLPVTPGEPASISCRSSQNIVHSNGNTYLQWYLQKPGQSPQLLIFKVSNRFSGVPDRFSGSGSGTDFTLKISRVEAEDVGVYYCFQGSHVPFTFGQGTKLEIK
notes: Humanized F2.154.1; VH H1 + VL L1; expressed as human IgG1
B2: hAb003LH2L1a (antibody, human IgG1, V domains shown)
VH: B1 VH with T28R, S30T
VL: B1 VL with N33D
notes: Humanized F2.154.1; VH H2 + VL L1a; expressed as human IgG1
B3: hAb003LH1L1a (antibody, human IgG1, V domains shown)
VH: B1 VH
VL: B1 VL with N33D
notes: Humanized F2.154.1; VH H1 + VL L1a; expressed as human IgG1
B4: hAb006LH3L1b (antibody, human IgG1, V domains shown)
VH: B1 VH with S30T, M34I, T50A, E54K, T61N, D66G, I70L, G99Y, Y100F, T103A
VL: B1 VL with N28T, I29F, G34A, F54Y, F101Y
notes: Humanized F3.38.7; VH H3 + VL L1b; expressed as human IgG1
B5: hAb003LH1L1b (antibody, human IgG1, V domains shown)
VH: B1 VH
VL: B1 VL with G34R
notes: Humanized F2.154.1; VH H1 + VL L1b; expressed as human IgG1
B6: hAb006LH2L1b (antibody, human IgG1, V domains shown)
VH: B1 VH with S30T, M34I, T50A, E54K, T61N, D66G, G99Y, Y100F, T103A
VL: B1 VL with N28T, I29F, G34A, F54Y, F101Y
notes: Humanized F3.38.7; VH H2 + VL L1b; expressed as human IgG1
B7: hAb006LH1L1 (antibody, human IgG1, V domains shown)
VH: B1 VH with M34I, T50A, E54K, T61N, D66G, G99Y, Y100F, T103A
VL: B1 VL with N28T, I29F, F54Y, F101Y
notes: Humanized F3.38.7; VH H1 + VL L1; expressed as human IgG1
B8: hAb003LH2L1 (antibody, human IgG1, V domains shown)
VH: B1 VH with T28R, S30T
VL: B1 VL
notes: Humanized F2.154.1; VH H2 + VL L1; expressed as human IgG1
B9: hAb006LH1L1b (antibody, human IgG1, V domains shown)
VH: B1 VH with M34I, T50A, E54K, T61N, D66G, G99Y, Y100F, T103A
VL: B1 VL with N28T, I29F, G34A, F54Y, F101Y
notes: Humanized F3.38.7; VH H1 + VL L1b; expressed as human IgG1
B10: hAb003LH2L1b (antibody, human IgG1, V domains shown)
VH: B1 VH with T28R, S30T
VL: B1 VL with G34R
notes: Humanized F2.154.1; VH H2 + VL L1b; expressed as human IgG1
B11: hAb006LH3L1 (antibody, human IgG1, V domains shown)
VH: B1 VH with S30T, M34I, T50A, E54K, T61N, D66G, I70L, G99Y, Y100F, T103A
VL: B1 VL with N28T, I29F, F54Y, F101Y
notes: Humanized F3.38.7; VH H3 + VL L1; expressed as human IgG1
B12: hAb006LH3L1c (antibody, human IgG1, V domains shown)
VH: B1 VH with S30T, M34I, T50A, E54K, T61N, D66G, I70L, G99Y, Y100F, T103A
VL: B1 VL with N28T, I29F, G34R, F54Y, F101Y
notes: Humanized F3.38.7; VH H3 + VL L1c; expressed as human IgG1
B13: hAb003LH3L1 (antibody, human IgG1, V domains shown)
VH: B1 VH with T28R, S30T, I70L
VL: B1 VL
notes: Humanized F2.154.1; VH H3 + VL L1; expressed as human IgG1
B14: hAb006LH2L1 (antibody, human IgG1, V domains shown)
VH: B1 VH with S30T, M34I, T50A, E54K, T61N, D66G, G99Y, Y100F, T103A
VL: B1 VL with N28T, I29F, F54Y, F101Y
notes: Humanized F3.38.7; VH H2 + VL L1; expressed as human IgG1

molecular target: T1, human GPC3 on CHO-K1-human GPC3 cells (CHOK1-hGPC3.2B5) (human, UniProt P51654 25-554); assay: FACS, CHOK1-hGPC3.2B5 cells;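 also: flow cytometry of humanized antibodies binding to the cells over one hour in the cold, read as cell mean fluorescence intensity, with EC50 obtained by curve fitting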
T1 construct: whole, on cells
Description: The desired cells were expanded to a logarithmic growth phase in a T-75 cell culture flask, the medium was removed by pipetting, and the cells were washed twice with a PBS buffer, and digested with trypsin. Then a complete medium was added to stop the digestion, and the cells were blown into a single cell suspension. After counting, the cells were centrifuged, and the cell pellet was resuspended with an FACS buffer (PBS+2% fetal bovine serum) to 2×10⁶ cells/mL. The cell resuspension solution was added to a 96-well FACS reaction plate at 50 μl/well, and a humanized antibody sample to be tested was added at 50 μl/well for incubation at 4° C. for 1 h. […] After the plate was centrifuged and washed 3 times with a PBS buffer, 100 μl of the resulting solution was assayed and analyzed by FACS (FACS Canto™, purchased from BD Biosciences). Data analysis was performed by software (FlowJo) to obtain the mean fluorescence intensity (MFI) of the cells. Then, analysis was performed by software (GraphPad Prism8), data were fitted, and EC₅₀ values were calculated.

Point of comparison: B1, EC50 1.42 nM. Against it:
- B2 — 8.2-fold higher, 11.6 nM
- B3 — 32-fold higher, 45.1 nM
- B4 — within 1.5-fold, 0.97 nM
- B5 — within 1.5-fold, 1.2 nM
- B6 — within 1.5-fold, 1.14 nM
- B7 — 1.6-fold lower, 0.906 nM
- B8 — within 1.5-fold, 1.07 nM
- B9 — within 1.5-fold, 1.1 nM
- B10 — 2.4-fold lower, 0.584 nM
- B11 — 1.5-fold lower, 0.929 nM
- B12 — within 1.5-fold, 1.16 nM
- B13 — within 1.5-fold, 1.08 nM
- B14 — within 1.5-fold, 1.02 nM

Point of comparison: B6, “Max MFI” value 4790 MFI. Against it:
- B1 — higher, 5220 MFI
- B2 — lower, 1770 MFI
- B3 — lower, 2070 MFI
- B4 — lower, 4670 MFI
- B5 — higher, 5010 MFI
- B7 — lower, 4780 MFI
- B8 — higher, 5140 MFI
- B9 — lower, 4630 MFI
- B10 — higher, 5000 MFI
- B11 — higher, 4920 MFI
- B12 — higher, 18000 MFI
- B13 — higher, 5040 MFI
- B14 — higher, 4880 MFI

molecular target: biotinylated labeled human GPC3 protein (produced in-house) (human, UniProt P51654 25-559, limits assumed, biotinylated (Dojindo, Cat. No. LK03); sites not stated); assay: ELISA, biotinylated human GPC3 protein

Point of comparison: B3, “OD450 at 0.0008 nM” value 0.082 OD450. Against it:
- B1 — higher, 0.16 OD450
- B2 — higher, 0.088 OD450
- B4 — higher, 0.155 OD450
- B5 — higher, 0.147 OD450
- B6 — higher, 0.16 OD450
- B7 — higher, 0.117 OD450
- B8 — higher, 0.151 OD450
- B9 — higher, 0.15 OD450
- B10 — higher, 0.171 OD450
- B11 — higher, 0.154 OD450
- B13 — higher, 0.137 OD450
- B14 — higher, 0.192 OD450

Point of comparison: B8, “OD450 at 0.004 nM” value 0.376 OD450. Against it:
- B1 — higher, 0.427 OD450
- B2 — lower, 0.146 OD450
- B3 — lower, 0.115 OD450
- B4 — lower, 0.309 OD450
- B5 — lower, 0.371 OD450
- B6 — lower, 0.316 OD450
- B7 — lower, 0.365 OD450
- B9 — lower, 0.288 OD450
- B10 — lower, 0.372 OD450
- B11 — lower, 0.287 OD450
- B13 — lower, 0.297 OD450
- B14 — higher, 0.629 OD450

Point of comparison: B2, “OD450 at 0.02 nM” value 0.423 OD450. Against it:
- B1 — higher, 1.19 OD450
- B3 — lower, 0.334 OD450
- B4 — higher, 0.878 OD450
- B5 — higher, 1.11 OD450
- B6 — higher, 0.872 OD450
- B7 — higher, 1.05 OD450
- B8 — higher, 1.03 OD450
- B9 — higher, 0.841 OD450
- B10 — higher, 1.05 OD450
- B11 — higher, 0.819 OD450
- B13 — higher, 0.915 OD450
- B14 — higher, 1 OD450

Point of comparison: B6, “OD450 at 0.11 nM” value 1.91 OD450. Against it:
- B1 — higher, 2.15 OD450
- B2 — lower, 1.18 OD450
- B3 — lower, 1.12 OD450
- B4 — higher, 1.93 OD450
- B5 — higher, 2.1 OD450
- B7 — lower, 1.9 OD450
- B8 — higher, 1.98 OD450
- B9 — lower, 1.71 OD450
- B10 — higher, 1.97 OD450
- B11 — lower, 1.65 OD450
- B13 — lower, 1.89 OD450
- B14 — lower, 1.83 OD450

Point of comparison: B10, “OD450 at 0.53 nM” value 2.44 OD450. Against it:
- B1 — higher, 2.5 OD450
- B2 — lower, 1.9 OD450
- B3 — lower, 1.97 OD450
- B4 — lower, 2.36 OD450
- B5 — lower, 2.35 OD450
- B6 — lower, 2.41 OD450
- B7 — lower, 2.39 OD450
- B8 — lower, 2.43 OD450
- B9 — lower, 2.4 OD450
- B11 — lower, 2.06 OD450
- B13 — lower, 2.26 OD450
- B14 — lower, 2.36 OD450

Point of comparison: B10, “OD450 at 2.67 nM” value 2.39 OD450. Against it:
- B1 — higher, 2.47 OD450
- B2 — lower, 2.14 OD450
- B3 — lower, 2.27 OD450
- B4 — higher, 2.42 OD450
- B5 — higher, 2.5 OD450
- B6 — higher, 2.55 OD450
- B7 — lower, 2.36 OD450
- B8 — higher, 2.47 OD450
- B9 — higher, 2.46 OD450
- B11 — lower, 2.2 OD450
- B13 — higher, 2.56 OD450
- B14 — higher, 2.4 OD450

Point of comparison: B11, “OD450 at 13.33 nM” value 2.25 OD450. Against it:
- B1 — higher, 2.57 OD450
- B2 — lower, 2.18 OD450
- B3 — lower, 2.21 OD450
- B4 — higher, 2.36 OD450
- B5 — higher, 2.44 OD450
- B6 — higher, 2.4 OD450
- B7 — higher, 2.42 OD450
- B8 — higher, 2.53 OD450
- B9 — higher, 2.47 OD450
- B10 — higher, 2.5 OD450
- B13 — higher, 2.3 OD450
- B14 — higher, 2.29 OD450

Point of comparison: B8, “OD450 at 66.66 nM” value 2.54 OD450. Against it:
- B1 — lower, 2.49 OD450
- B2 — lower, 2.34 OD450
- B3 — lower, 2.45 OD450
- B4 — lower, 2.5 OD450
- B5 — higher, 2.65 OD450
- B6 — lower, 2.37 OD450
- B7 — lower, 2.43 OD450
- B9 — higher, 2.57 OD450
- B10 — higher, 2.6 OD450
- B11 — lower, 2.33 OD450
- B13 — lower, 2.39 OD450
- B14 — lower, 2.28 OD450

With B12 the “OD450 at 0.0004 nM” value was 0.071 OD450.

In the case of B12, the “OD450 at 0.002 nM” value is reported as 0.102 OD450.

B12 was tested, and the “OD450 at 0.011 nM” value was 0.265 OD450.

B12 was tested, and the “OD450 at 0.056 nM” value was 0.756 OD450.

With B12 the “OD450 at 0.28 nM” value was 1.3 OD450.

B12 was tested, and the “OD450 at 1.39 nM” value was 1.46 OD450.

In the case of B12, the “OD450 at 6.94 nM” value is reported as 1.44 OD450.

For B12, the “OD450 at 34.72 nM” value was 1.36 OD450.
